Reference: publication doi:10.1101/2019.12.26.888982 (bioRxiv, 2019)

B1: Human TRPA1 (N-terminal-tagged MBP-TRPA1), unmodified (apo or with the antagonist A-967079) (natural protein)
chain: MKRSLRKMWRPGEKKEPQGVVYEDVPDDTEDFKESLKVVFEGSAYGLQNFNKQKKLKRCDDMDTFFLHYAAAEGQIELMEKITRDSSLEVLHEMDDYGNTPLHCAVEKNQIESVKFLLSRGANPNLRNFNMMAPLHIAVQGMNNEVMKVLLEHRTIDVNLEGENGNTAVIIACTTNNSEALQILLKKGAKPCKSNKWGCFPIHQAAFSGSKECMEIILRFGEEHGYSRQLHINFMNNGKATPLHLAVQNGDLEMIKMCLDNGAQIDPVEKGRCTAIHFAATQGATEIVKLMISSYSGSVDIVNTTDGCHETMLHRASLFDHHELADYLISVGADINKIDSEGRSPLILATASASWNIVNLLLSKGAQVDIKDNFGRNFLHLTVQQPYGLKNLRPEFMQMQQIKELVMDEDNDGCTPLHYACRQGGPGSVNNLLGFNVSIHSKSKDKKSPLHFAASYGRINTCQRLLQDISDTRLLNEGDLHGMTPLHLAAKNGHDKVVQLLLKKGALFLSDHNGWTALHHASMGGYTQTMKVILDTNLKCTDRLDEDGNTALHFAAREGHAKAVALLLSHNADIVLNKQQASFLHLALHNKRKEVVLTIIRSKRWDECLKIFSHNSPGNKCPITEMIEYLPECMKVLLDFCMLHSTEDKSCRDYYIEYNFKYLQCPLEFTKKTPTQDVIYEPLTALNAMVQNNRIELLNHPVCKEYLLMKWLAYGFRAHMMNLGSYCLGLIPMTILVVNIKPGMAFNSTGIINETSDHSEILDTTNSYLIKTCMILVFLSSIFGYCKEAGQIFQQKRNYFMDISNVLEWIIYTTGIIFVLPLFVEIPAHLQWQCGAIAVYFYWMNFLLYLQRFENCGIFIVMLEVILKTLLRSTVVFIFLLLAFGLSFYILLNLQDPFSSPLLSIIQTFSMMLGDINYRESFLEPYLRNELAHPVLSFAQLVSFTIFVPIVLMNLLIGLAVGDIAEVQKHASLKRIAMQVELHTSLEKKLPLWFLRKVDQKSTIVYPNKPRSGGMLFHIFCFLFCTGEIRQEIPNADKSLEMEILKQKYRLKDLTFLLEKQHELIKLIIQKMEIISETEDDDSHCSFQDRFKKEQMEQRNSRWNTVLRAVKAKTHHLEP
B2: Human TRPA1 (MBP-TRPA1) modified with iodoacetamide (IA), activated state (natural protein)
chain: MKRSLRKMWRPGEKKEPQGVVYEDVPDDTEDFKESLKVVFEGSAYGLQNFNKQKKLKRCDDMDTFFLHYAAAEGQIELMEKITRDSSLEVLHEMDDYGNTPLHCAVEKNQIESVKFLLSRGANPNLRNFNMMAPLHIAVQGMNNEVMKVLLEHRTIDVNLEGENGNTAVIIACTTNNSEALQILLKKGAKPCKSNKWGCFPIHQAAFSGSKECMEIILRFGEEHGYSRQLHINFMNNGKATPLHLAVQNGDLEMIKMCLDNGAQIDPVEKGRCTAIHFAATQGATEIVKLMISSYSGSVDIVNTTDGCHETMLHRASLFDHHELADYLISVGADINKIDSEGRSPLILATASASWNIVNLLLSKGAQVDIKDNFGRNFLHLTVQQPYGLKNLRPEFMQMQQIKELVMDEDNDGCTPLHYACRQGGPGSVNNLLGFNVSIHSKSKDKKSPLHFAASYGRINTCQRLLQDISDTRLLNEGDLHGMTPLHLAAKNGHDKVVQLLLKKGALFLSDHNGWTALHHASMGGYTQTMKVILDTNLKCTDRLDEDGNTALHFAAREGHAKAVALLLSHNADIVLNKQQASFLHLALHNKRKEVVLTIIRSKRWDECLKIFSHNSPGNKCPITEMIEYLPECMKVLLDFCMLHSTEDKSCRDYYIEYNFKYLQCPLEFTKKTPTQDVIYEPLTALNAMVQNNRIELLNHPVCKEYLLMKWLAYGFRAHMMNLGSYCLGLIPMTILVVNIKPGMAFNSTGIINETSDHSEILDTTNSYLIKTCMILVFLSSIFGYCKEAGQIFQQKRNYFMDISNVLEWIIYTTGIIFVLPLFVEIPAHLQWQCGAIAVYFYWMNFLLYLQRFENCGIFIVMLEVILKTLLRSTVVFIFLLLAFGLSFYILLNLQDPFSSPLLSIIQTFSMMLGDINYRESFLEPYLRNELAHPVLSFAQLVSFTIFVPIVLMNLLIGLAVGDIAEVQKHASLKRIAMQVELHTSLEKKLPLWFLRKVDQKSTIVYPNKPRSGGMLFHIFCFLFCTGEIRQEIPNADKSLEMEILKQKYRLKDLTFLLEKQHELIKLIIQKMEIISETEDDDSHCSFQDRFKKEQMEQRNSRWNTVLRAVKAKTHHLEP
modifications: iodoacetamide covalent adduct at Cys621; weaker density at Cys665, which may reflect partial modification
B3: Human TRPA1 (MBP-TRPA1) modified with BODIPY-iodoacetamide (BIA) (natural protein)
chain: KRSLRKMWRPGEKKEPQGVVYEDVPDDTEDFKESLKVVFEGSAYGLQNFNKQKKLKRCDDMDTFFLHYAAAEGQIELMEKITRDSSLEVLHEMDDYGNTPLHCAVEKNQIESVKFLLSRGANPNLRNFNMMAPLHIAVQGMNNEVMKVLLEHRTIDVNLEGENGNTAVIIACTTNNSEALQILLKKGAKPCKSNKWGCFPIHQAAFSGSKECMEIILRFGEEHGYSRQLHINFMNNGKATPLHLAVQNGDLEMIKMCLDNGAQIDPVEKGRCTAIHFAATQGATEIVKLMISSYSGSVDIVNTTDGCHETMLHRASLFDHHELADYLISVGADINKIDSEGRSPLILATASASWNIVNLLLSKGAQVDIKDNFGRNFLHLTVQQPYGLKNLRPEFMQMQQIKELVMDEDNDGCTPLHYACRQGGPGSVNNLLGFNVSIHSKSKDKKSPLHFAASYGRINTCQRLLQDISDTRLLNEGDLHGMTPLHLAAKNGHDKVVQLLLKKGALFLSDHNGWTALHHASMGGYTQTMKVILDTNLKCTDRLDEDGNTALHFAAREGHAKAVALLLSHNADIVLNKQQASFLHLALHNKRKEVVLTIIRSKRWDECLKIFSHNSPGNKCPITEMIEYLPECMKVLLDFCMLHSTEDKSCRDYYIEYNFKYLQCPLEFTKKTPTQDVIYEPLTALNAMVQNNRIELLNHPVCKEYLLMKWLAYGFRAHMMNLGSYCLGLIPMTILVVNIKPGMAFNSTGIINETSDHSEILDTTNSYLIKTCMILVFLSSIFGYCKEAGQIFQQKRNYFMDISNVLEWIIYTTGIIFVLPLFVEIPAHLQWQCGAIAVYFYWMNFLLYLQRFENCGIFIVMLEVILKTLLRSTVVFIFLLLAFGLSFYILLNLQDPFSSPLLSIIQTFSMMLGDINYRESFLEPYLRNELAHPVLSFAQLVSFTIFVPIVLMNLLIGLAVGDIAEVQKHASLKRIAMQVELHTSLEKKLPLWFLRKVDQKSTIVYPNKPRSGGMLFHIFCFLFCTGEIRQEIPNADKSLEMEILKQKYRLKDLTFLLEKQHELIKLIIQKMEIISETEDDDSHCSFQDRFKKEQMEQRNSRWNTVLRAVKAKTHHLEP
modifications: BODIPY-IA (BIA) covalent adduct at Cys621

Target: the molecule itself
Assay: cryo-EM structure

Binding result, binds:
B1
B2
B3
